In series [1] the target is MBP-Klf4-GFP (Homo sapiens, UniProt O43474 1-513). The series can be described thus: EMSA; poly-d(IC) 37.5 ng; Kd value not in material; EMSA: 25 mM Tris pH 7.4, 125 mM KCl, 6% glycerol, 1 mM DTT, 0.1 mg/ml BSA, 7.5 nM Cy5-dsDNA, 37.5 ng poly-d(IC), 20 min at 4 °C. Particulars: protein: recombinant, tags: N-terminal MBP (3C-cleavable), label: Cy5 at 3' end of strand 1 (so in the source), blunt. Background: A gel shift assay detects complexes by their altered migration in electrophoresis.

For series [2], the target named is Klf4-GFP (Homo sapiens, UniProt O43474 1-513). The series can be described thus: EMSA; poly-d(IC) 37.5 ng; Kd plotted in ED Fig. 2c but value not in material; EMSA: 25 mM Tris pH 7.4, 125 mM KCl, 6% glycerol, 1 mM DTT, 0.1 mg/ml BSA, 7.5 nM Cy5-dsDNA, 37.5 ng poly-d(IC), 20 min at 4 °C. The conditions noted are these: protein: recombinant; tags: C-terminal GFP; MBP removed with 3C protease; label: Cy5 at 3' end of strand 1 (so in the source); blunt.
Chain of Klf4-GFP (O43474 whole entry): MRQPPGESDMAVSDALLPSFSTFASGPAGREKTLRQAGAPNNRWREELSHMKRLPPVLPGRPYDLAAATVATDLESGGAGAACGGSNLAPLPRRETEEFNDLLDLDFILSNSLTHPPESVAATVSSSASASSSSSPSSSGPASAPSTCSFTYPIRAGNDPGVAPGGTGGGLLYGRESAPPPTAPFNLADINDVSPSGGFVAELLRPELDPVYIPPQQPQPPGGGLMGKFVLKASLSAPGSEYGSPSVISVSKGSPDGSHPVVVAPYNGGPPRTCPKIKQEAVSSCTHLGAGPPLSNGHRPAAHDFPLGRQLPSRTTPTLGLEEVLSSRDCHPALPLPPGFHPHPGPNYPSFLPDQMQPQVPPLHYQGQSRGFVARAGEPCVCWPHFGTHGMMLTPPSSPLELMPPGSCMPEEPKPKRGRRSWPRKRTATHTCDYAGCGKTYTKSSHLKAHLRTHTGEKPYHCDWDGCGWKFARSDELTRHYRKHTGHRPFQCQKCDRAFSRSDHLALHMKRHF

Chain of MBP-Klf4-GFP (O43474 whole entry): as above

B1: Klf4 specific dsDNA EMSA (dsDNA)
DNA 1: GGAGGGGTGTGGGGCTG
DNA 2: CAGCCCCACACCCCTCC
Turning to B1, the binding result in series [1] and in series [2] was “binds” throughout.

For the origin of these results see publication doi:10.1101/2020.09.24.311712, “Surface condensation of a pioneer transcription factor on DNA”.
